T1: 6×His-Livin α
T1 chain: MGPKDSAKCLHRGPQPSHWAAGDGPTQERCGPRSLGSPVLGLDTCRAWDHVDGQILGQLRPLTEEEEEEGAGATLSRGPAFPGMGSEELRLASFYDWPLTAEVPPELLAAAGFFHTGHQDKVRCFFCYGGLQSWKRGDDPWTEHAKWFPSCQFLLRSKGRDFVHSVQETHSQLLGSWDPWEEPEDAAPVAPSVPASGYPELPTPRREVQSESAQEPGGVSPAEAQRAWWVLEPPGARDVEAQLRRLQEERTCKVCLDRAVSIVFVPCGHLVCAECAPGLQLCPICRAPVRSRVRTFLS

T2: 6×His-Livin β
T2 chain: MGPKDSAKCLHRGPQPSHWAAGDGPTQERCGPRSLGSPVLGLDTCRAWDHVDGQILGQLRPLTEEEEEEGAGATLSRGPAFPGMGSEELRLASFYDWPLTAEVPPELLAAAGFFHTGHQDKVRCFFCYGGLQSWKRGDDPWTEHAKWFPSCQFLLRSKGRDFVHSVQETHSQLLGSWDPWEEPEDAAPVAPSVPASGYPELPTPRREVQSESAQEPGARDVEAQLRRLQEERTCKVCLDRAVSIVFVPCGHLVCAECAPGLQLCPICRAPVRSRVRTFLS

T3: Livin α
T3 chain: T1 chain

T4: Livin β
T4 chain: T2 chain

B1: caspase 8 (protein)
chain: SESQTLDKVYQMKSKPRGYCLIINNHNFAKAREKVPKLHSIRDRNGTHLDAGALTTTFEELHFEIKPHDDCTVEQIYEILKIYQLMDHSNMDCFICCILSHGDKGIIYGTDGQEAPIYELTSQFTGLKCPSLAGKPKVFFIQACQGDNYQKGIPVETDSEEQPYLEMDLSSPQTRYIPDEADFLLGMATVNNCVSYRNPAEGTWYIQSLCQSLRERCPRGDDILTILTEVNYEVSNKDDKKNMGKQMPQPTFTLRKKLVFPSD
B2: caspase 6 (protein)
chain: AFYKREMFDPAEKYKMDHRRRGIALIFNHERFFWHLTLPERRGTCADRDNLTRRFSDLGFEVKCFNDLKAEELLLKIHEVSTVSHADADCFVCVFLSHGEGNHIYAYDAKIEIQTLTGLFKGDKCHSLVGKPKIFIIQACRGNQHDVPVIPLDVVDNQTEKLDTNITEVDAASVYTLPAGADFLMCYSVAEGYYSHRETVNGSWYIQDLCEMLGKYGSSLEFTELLTLVNRKVSQRRVDFCKDPSAIGKKQVPCFASMLTKKLHFFPKSN
B3: caspase 7 (protein)
chain: AKPDRSSFVPSLFSKKKKNVTMRSIKTTRDRVPTYQYNMNFEKLGKCIIINNKNFDKVTGMGVRNGTDKDAEALFKCFRSLGFDVIVYNDCSCAKMQDLLKKASEEDHTNAACFACILLSHGEENVIYGKDGVTPIKDLTAHFRGDRCKTLLEKPKLFFIQACRGTELDDGIQADSGPINDTDANPRYKIPVEADFLFAYSTVPGYYSWRSPGRGSWFVQALCSILEEHGKDLEIMQILTRVNDRVARHFESQSDDPHFHEKKQIPCVVSMLTKELYFSQ
B4: caspase 9 (protein)
chain: MDEADRRLLRRCRLRLVEELQVDQLWDALLSRELFRPHMIEDIQRAGSGSRRDQARQLIIDLETRGSQALPLFISCLEDTGQDMLASFLRTNRQAAKLSKPTLENLTPVVLRPEIRKPEVLRPETPRPVDIGSGGFGDVGALESLRGNADLAYILSMEPCGHCLIINNVNFCRESGLRTRTGSNIDCEKLRRRFSSLHFMVEVKGDLTAKKMVLALLELAQQDHGALDCCVVVILSHGCQASHLQFPGAVYGTDGCPVSVEKIVNIFNGTSCPSLGGKPKLFFIQACGGEQKDHGFEVASTSPEDESPGSNPEPDATPFQEGLRTFDQLDAISSLPTPSDIFVSYSTFPGFVSWRDPKSGSWYVETLDDIFEQWAHSEDLQSLLLRVANAVSVKGIYKQMPGCFNFLRKKLFFKTS
B5: caspase 3 (protein)
chain: SGISLDNSYKMDYPEMGLCIIINNKNFHKSTGMTSRSGTDVDAANLRETFRNLKYEVRNKNDLTREEIVELMRDVSKEDHSKRSSFVCVLLSHGEEGIIFGTNGPVDLKKITNFFRGDRCRSLTGKPKLFIIQACRGTELDCGIETDSGVDDDMACHKIPVEADFLYAYSTAPGYYSWRNSKDGSWFIQSLCAMLKQYADKLEFMHILTRVNRKVATEFESFSFDATFHAKKQIPCIVSMLTKELYFYH

Target: T1, 6×His-Livin α

| Protein | in vitro cleavage, Western blot with anti-Livin antibody |
| --- | --- |
| B1 | Treatment of recombinant Livin α and β with caspase 8 had no effect even when 90 units of this enzyme were used |
| B2 | caspase 6 was not able to cleave Livin at low concentrations (FIG. 4b) |
| B3 | In contrast to the marked efficiency of caspase 7, caspase 6 was not able to cleave Livin at low concentrations (FIG. 4b) |
| B4 | incubation with high concentrations of caspase 9 resulted in a weak cleavage, suggesting that caspase 9 might cleave Livin with a very low affinity |

Target: T2, 6×His-Livin β

| Protein | in vitro cleavage, Western blot with anti-Livin antibody |
| --- | --- |
| B1 | Treatment of recombinant Livin α and β with caspase 8 had no effect even when 90 units of this enzyme were used |
| B2 | relatively high concentrations of caspase 6 ... cleaved Livin β |
| B3 | The most efficient cleavage was observed when caspase 7 was used, resulting in the complete cleavage of the recombinant Livin β |
| B4 | incubation with high concentrations of caspase 9 resulted in a weak cleavage, suggesting that caspase 9 might cleave Livin with a very low affinity |
| B5 | effector caspases 3, 7, and relatively high concentrations of caspase 6, but not the initiator caspases 8 and 9, cleaved Livin β |

Target: T3, Livin α

| Protein | in vitro cleavage of in vitro translated protein, Western blot |
| --- | --- |
| B2 | it did not cleave any of the Livin isoforms that were translated in eukaryotic in vitro system |
| B3 | underwent cleavage similar to the wild-type protein by caspase 3 and 7 |
| B5 | underwent cleavage similar to the wild-type protein by caspase 3 and 7 |

Target: T4, Livin β

| Protein | in vitro cleavage of in vitro translated protein, Western blot |
| --- | --- |
| B2 | it did not cleave any of the Livin isoforms that were translated in eukaryotic in vitro system |
| B3 | underwent cleavage similar to the wild-type protein by caspase 3 and 7 |
| B5 | underwent cleavage similar to the wild-type protein by caspase 3 and 7 |

From US20070244040
